Experimental data as given in article PMC3776475.

Legend:
[1] = target: JR-FL SOSIP.R6-IZ-D7324 gp140 expressed in 293S GnTI^-/- cells (HIV-1 isolate JR-FL (subtype B)); assay: SEC
[2] = target: JR-FL SOSIP.R6-IZ-D7324 gp140 expressed in 293S GnTI^-/- cells (HIV-1 isolate JR-FL (subtype B)); assay: native gel or EMSA
[3] = target: KNH1144 SOSIP.R6 MPER gp140 expressed in 293S GnTI^-/- cells with furin (HIV-1 isolate KNH1144 (subtype A)); assay: SEC
[4] = target: KNH1144 SOSIP.R6 MPER gp140 expressed in 293T cells with furin, without kifunensine (HIV-1 isolate KNH1144 (subtype A)); assay: native gel or EMSA
[5] = target: JR-FL SOSIP.R6-IZ-D7324 gp140 expressed in 293T cells (HIV-1 isolate JR-FL (subtype B)); assay: native gel or EMSA
[6] = target: KNH1144 SOSIP.R6 MPER gp140 expressed in 293T cells with furin and kifunensine (HIV-1 isolate KNH1144 (subtype A)); assay: native gel or EMSA

JR-FL SOSIP.R6-IZ-D7324 gp140 expressed in 293S GnTI^-/- cells
stoichiometry N [1]: 3 | stoichiometry N [2]: 3

KNH1144 SOSIP.R6 MPER gp140 expressed in 293S GnTI^-/- cells with furin (complex)
stoichiometry N [3]: 3

KNH1144 SOSIP.R6 MPER gp140 expressed in 293T cells with furin, without kifunensine (complex)
stoichiometry N [4]: 3

JR-FL SOSIP.R6-IZ-D7324 gp140 expressed in 293T cells
stoichiometry N [5]: 3

KNH1144 SOSIP.R6 MPER gp140 expressed in 293T cells with furin and kifunensine (complex)
stoichiometry N [6]: 3
